Test [1] addresses Ex-4-C40, exendin-4 with an additional Cys at the C-terminus (UniProt P26349 48-87). Kind of test: SPR; Biacore T200; recombinant human GLP-1R (0.5 μM) immobilized on a CM5 sensor chip; peptides injected at four-fold serial dilutions (0, 0.1-100 nM); n = 3; 1:1 interaction model. The conditions noted are these: both partners purified.
Test [2] concerns the target exendin-4 (UniProt P26349 48-87). The description is as above. The conditions noted are these: both partners purified.

B1: Recombinant human GLP-1R protein (receptor)
chain: RPQGATVSLWETVQKWREYRRQCQRSLTEDPPPATDLFCNRTFDEYACWPDGEPGSFVNVSCPWYLPWASSVPQGHVYRFCTAEGLWLQKDNSSLPWRDLSECEESKRGERSSPEEQLLFLY
modifications: Limits are not printed. The Sino Biological H02H catalogue suffix suggests a soluble extracellular domain with a C-terminal human Fc (left out). Residues 24-145 are the usual ectodomain construct …
For the molecule B1, the Kd came out at 36 nM in test [1] and 33.6 nM in test [2].

Source of the values: paper PMC11901735 (Molecules, 2025).
